Experimental data as given in US20090017041A1.

What was measured:
[1] = biological target: oligomer-enriched preparation of the Aβ1-42 peptide (Example 16); assay: ELISA, fraction coated at 2.2 µM; assay 1; antibody dilution 1:1 (start 0.5 µg/ml)
[2] = biological target: monomer-enriched preparation of the Aβ1-42 peptide (Example 16); assay: as above
[3] = biological target: low molecular weight (LMW) monomeric preparation of the Aβ1-42 peptide (Example 15) (human); assay: ELISA, fraction coated at 2 µM; antibody 0.25 µg/ml
low molecular weight (LMW) monomeric preparation of the Aβ1-42 peptide (Example 15) (human), sequence (peptide, as listed by the source): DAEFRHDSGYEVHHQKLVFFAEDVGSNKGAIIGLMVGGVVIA

[4] = biological target: high molecular weight (HMW) proto-fibrillar (PF) oligomer enriched preparation of the Aβ1-42 peptide (Example 15) (human); assay: as above
high molecular weight (HMW) proto-fibrillar (PF) oligomer enriched preparation of the Aβ1-42 peptide (Example 15) (human), sequence (peptide, as listed by the source): as above

[5] = biological target: oligomer-enriched preparation of the Aβ1-42 peptide (Example 16); assay: ELISA, fraction coated at 2.2 µM; assay 1; antibody dilution 1:128 (start 0.5 µg/ml)
[6] = biological target: low molecular weight (LMW) monomeric preparation of the Aβ1-42 peptide (Example 15) (human); assay: ELISA, fraction coated at 2 µM; antibody 0.0078 µg/ml
[7] = biological target: high molecular weight (HMW) proto-fibrillar (PF) oligomer enriched preparation of the Aβ1-42 peptide (Example 15) (human); assay: as above
[8] = biological target: oligomer-enriched preparation of the Aβ1-42 peptide (Example 16); assay: ELISA, fraction coated at 2.2 µM; assay 1; antibody dilution 1:64 (start 0.5 µg/ml)
[9] = biological target: monomer-enriched preparation of the Aβ1-42 peptide (Example 16); assay: as above
[10] = biological target: oligomer-enriched preparation of the Aβ1-42 peptide (Example 16); assay: ELISA, fraction coated at 2.2 µM; assay 3; antibody dilution 1:8 (start 0.5 µg/ml)

oligomer-enriched preparation of the Aβ1-42 peptide (Example 16), sequence (peptide, as listed by the source): as above
monomer-enriched preparation of the Aβ1-42 peptide (Example 16), sequence (peptide, as listed by the source): as above

O.D. (405 nm) [1]: 3.36 O.D. | O.D. (405 nm) [2]: 3.67 O.D. | O.D. (405 nm) [3]: 1.56 O.D. | O.D. (405 nm) [4]: 1.44 O.D. | O.D. (405 nm) [5]: 0.62 O.D. | O.D. (405 nm) [6]: 0.133 O.D. | O.D. (405 nm) [7]: 0.116 O.D. | O.D. (405 nm) [8]: 0.93 O.D. | O.D. (405 nm) [9]: 0.81 O.D. | O.D. (405 nm) [10]: 3.23 O.D.
Substance: 6E10 control antibody
